This note sets out measurements from patent US10865391B2, “Glutamate dehydrogenase mutants and their application in preparation of L-phosphinothricin” (ZHEJIANG UNIVERSITY, priority 2018, dated 2020).

Type in all cases: biochemical
Series [1] is described as follows: Standard enzyme activity measurement toward PPO, crude enzyme (per volume fermentation broth). The settings on record: toward PPO; for Enzyme activity of mutants (U/mL): standard system, N.D. = no detectable activity. The procedure: The preserved recombinant E. coli is streaked onto the plate for activation. Single colonies are picked and inoculated into 5 mL LB liquid medium containing 50 μg/mL kanamycin and cultured at 37° C. for 12 h. The culture is transferred to 50 mL fresh LB liquid medium containing 50 μg/mL kanamycin at a 2% inoculum, and then incubated at 37° C. until the OD600 reaches 0.6; after that, add IPTG to a final concentration of 0.5 mM, and then proceed with induction culture under the temperature of 18° C. for 16 h.
After the cultivation, the culture is centrifuged at 10000 rpm for 10 min; discard supernatant, and collect cells. The harvested cells are washed for 2 times using pH 7.5 50 mM phosphate buffer. After that, the cells are re-suspend into the pH 7.5 phosphate buffer and disrupted ultrasonically (400W for 30 times, Ultrasonic time is 3 s, and the interval is 7 s). The cell disrupted solution is centrifuged at 12000 g for 5 min at 4° C. to remove the precipitate, and the supernatant obtained is the crude enzyme containing recombinant glutamate dehydrogenase
(§1) The standard enzyme activity measurement system: Appropriate amount of enzyme, 100 mM substrate, 10 mM coenzyme (NADH or NADPH), 500 mM NH4^+ ((NH4)2SO4); total system volume is up to 400 μL; reaction medium is pH 7.5 phosphate buffer. 35° C. reaction for 10 min; after that, add 40 uL 5 M NaOH to terminate reaction.
(§2) Definition of enzyme activity unit: The quantity of enzyme as required by generation of 1 μmol L-phosphinothricin per minute under standard reaction conditions.
Proceed with induction culture of constructed mutants, and prepare crude enzyme solution.

Series [2] is described as follows: Preparation of L-phosphinothricin by coupling glutamate dehydrogenase with glucose dehydrogenase. Conditions: 500 mM PPO. The procedure:
The reaction process is monitored by measuring the concentration of substrate in the reaction solution applying high-performance liquid chromatography (HPLC). HPLC analysis method is stated as follows: column model: Pntulips® QS-C18, 5 μm, 4.6 mm×250 mm. Mobile phase: 50 mM (NH4)2HPO4, added 1% of 10% tetrabutyl ammonium hydroxide, adjusted to pH 3.6 with 50% phosphoric acid(mass fraction), added 8% acetonitrile. Detective wave length is 205 nm; flow rate is 1.0 mL/min. Column temperature is 40° C.
The enantiomeric excess and concentration of product are determined through pre-column derivatization high-performance liquid chromatography; the specific analysis method is stated as follows:
(1) HPLC condition: column model: Pntulips® QS-C18, 5 μm, 4.6 mm×250 mm. Mobile phase: 50 mM Sodium acetate: Acetonitrile=8: 0.5 (v/v). Detective wave length: 338 nm. Flow rate: 0.85 mL/min. Column temperature: 30° C.
(2) Derivatization reagent: Weigh 0.03 g phthalaldehyde and 0.1 g N-acetyl-L-cysteine, and use 400 uL ethanol for solubilization; after that, add 4 mL 0.2 mol/L borate buffer (pH 9.8) and shake for dissolution prior to storage in the fridge under the temperature of 4° C. (no more than 4 days).
(3) Derivatization reaction and analysis: Add 150 μL derivatization reagent into 100 μL sample, mix and incubate at 25° C. for 5 min, and then inject 20 μL for analysis.
Culture recombinant E. coli expressing glutamate dehydrogenase (PpGluDH) and glucose dehydrogenase (BsGDH-2M, SEQ ID NO. 21) with method in Step 3 of Embodiment 1; proceed with centrifugal collection of cells and ultrasonic cell disruption to prepare crude enzyme solution.
(§3) The final volume of the reaction is 30 mL; each sample contains 500 mM substrate PPO, 600 mM glucose, 250 mM (NH4)2SO4 and 0.5 mM NADP^+. Concentration of glutamate dehydrogenase cells (dry weight) is 1.0 g/L; concentration of glucose dehydrogenase cells (dry weight) is 1.25 g/L. Use water bath to control the reaction temperature at 35° C.; titrate ammonia to control pH at 7.5 during the reaction process. Use non-chiral HPLC to determine residual concentration of PPO after reaction for 6 h; meanwhile, use pre-column derivatization HPLC to determine the concentration and ee value of formed L-phosphinothricin.
as §3, with “0.5” for “1.0”
as §3, with “NAD^+.” for “NADP^+.”, “1.25” for “1.0”
The final volume of the reaction is 30 mL; each sample contains 500 mM substrate PPO, 600 mM glucose, 250 mM (NH4)2SO4 and 0.5 mM NAD^+. Concentration of glutamate dehydrogenase cells (dry weight) is 1.25 g/L; concentration of glucose dehydrogenase cells (dry weight) is 1.25 g/L. Use water bath to control the reaction temperature at 35° C.; titrate ammonia to control pH at 7.5 during the reaction process. […]

Series [3] is described as follows: Specific activity of pure enzyme toward PPO. On the procedure: The recombinant E. coli carrying glutamate dehydrogenase gene used in the present invention is constructed and kept by our laboratory. The vector used is pET-28a(+), and the host used is E. coli BL21(DE3). NI-NTA resin (HisPur™ Ni-NTA Resin) used for protein purification is purchased from Thermo Scientific™; protein purification is carried out in reference to specifications.
as §1, §2
Meanwhile, specific activity of pure enzyme obtained through purification has also been measured. As measured, specific activity of pure protein of wild type PpGluDH is 0.31 U/mg; specific activity of PpGluDH-A167G is 38.13 U/mg, which is 123 times higher than that of wild type; specific activity of PpGluDH-V378A is 35.96 U/mg, which is 116 times higher than that of wild type.

Where [4] appears, read: NAD+, GluDH cells 1.25 g/L, 35° C., pH 7.5, 6 h.
Setting [5] is: NAD+, GluDH cells 1.25 g/L, 35° C., pH 7.5, 12 h.
The mark [6] stands for this setting: NAD+, GluDH cells 1.25 g/L, 50° C., pH 7.5, 6 h.
[7] abbreviates: NADP+, GluDH cells 1.0 g/L, 35° C., pH 7.5, 6 h.

Changes are numbered by the printed parent chain. In names and notes the source's numbering stands.

B1: CsGluDH-A164G: CsGluDH mutant A164G, SEQ ID NO. 17 (protein)
chain: MSKYVDRVIAEVEKKYADEPEFVQTVEEVLSSLGPVVDAHPEYEEVALLERMVIPERVIEFRVPWEDDNGKVHVNTGYRVQFNGAIGPYKGGLRFAPSVNLSIMKFLGFEQAFKDSLTTLPMGGAKGGSDFDPNGKSDREVMRFCQAFMTELYRHIGPDIDVPGGDLGVGAREIGYMYGQYRKIVGGFYNGVLTGKARSFGGSLVRPEATGYGSVYYVEAVMKHENDTLVGKTVALAGFGNVAWGAAKKLAELGAKAVTLSGPDGYIYDPEGITTEEKINYMLEMRASGRNKVQDYADKFGVQFFPGEKPWGQKVDIIMPCATQNDVDLEQAKKIVANNIKYYIEVANMPTTNEALRFLMQQPNMVVAPSKAVNAGGVLVSGFEMSQNSERLSWTAEEVDSKLHQVMTDIHDGSAAAAERYGLGYNLVAGANIVGFQKIADAMMAQGIAW
modifications: Clostridium symbiosum glutamate dehydrogenase mutant
For the molecule B1, the “Enzyme activity of mutants (U/mL)” value in series [1] (crude enzyme) is on record as 2.61 U/mL. Moreover, in series [2] (setting [4]), the “concentration of formed L-phosphinothricin” value (“concentration” below) amounted to 79.6 g/L, the “residual PPO” value is 0 mM and the substrate conversion is given as 100%.

B2: CsGluDH-V378A: CsGluDH mutant V378A, SEQ ID NO. 18 (protein)
chain: B1 chain with G164A, V378A
modifications: Clostridium symbiosum glutamate dehydrogenase mutant
Consider B2, for which, in series [1] (crude enzyme), the “Enzyme activity of mutants (U/mL)” value amounted to 1.76 U/mL. In series [2] (setting [5]), the “concentration” value was determined as 78.5 g/L, the “residual PPO” value is given as 1.8 mM and the substrate conversion was 99.6%.

B3: BtGluDH-A155G: BtGluDH mutant A155G, SEQ ID NO. 19 (protein)
chain: MVTENTQGKEQKQESMNLLQSTQTVIKEALEKLGYQESMYELLKEPLRVLTVRIPVRMDNGEVKVFTGYRAQHNDAVGPTKGGIRFHPDVTEDEVKALSIWMSLKAGIVDLPYGGGKGGIICDPREMSFRELERLSRGYVRAVSQIVGPTKDIPGPDVFTNSQIMAWMMDEYSRIREFDSPGFITGKPIALGGSHGRETATAKGVTICIREAAKRRGIDLKGARVVVQGFGNAGSYLSKFMHDAGAKVVGISDAYGALYDPNGLDIDYLLDRRDSFGTVTKLFTNTITNKELLELDCDILVPAAIENQITAANAHNIKAKIVVEAANGPTTLEATKILTERGILLVPDVLASAGGVTVSYFEWVQNNQGYYWSEEEVQEKLEKVMVKAFENVYSLAQTRRVDMRLAAYMVGVRKMAEASRFRGWV
modifications: Brevibacillus thermoruber glutamate dehydrogenase mutant
Turning to B3, the “Enzyme activity of mutants (U/mL)” value in series [1] (crude enzyme) turned out to be 0.50 U/mL. Further, in series [2] (setting [6]), the “concentration” value came out at 80.3 g/L, the “residual PPO” value was 1.4 mM and the substrate conversion is given as 99.7%.

B4: PpGluDH-A167G: PpGluDH mutant, alanine 167 to glycine, SEQ ID NO. 1 (protein)
chain: MSTMIESVDNFLARLKQRDPGQPEFHQAVEEVLRTLWPFLEANPHYLQSGILERMVEPERAVLFRVSWVDDQGKVQVNRGYRIQMSSAIGPYKGGLRFHPSVNLSVLKFLAFEQVFKNSLTSLPMGGGKGGSDFDPKGKSDAEVMRFCQAFMSELYRHIGADCDVPGGDIGVGAREIGFMFGQYKRLANQFTSVLTGKGMTYGGSLIRPEATGYGCVYFAEEMLKRQDKRIDGRRVAVSGSGNVAQYAARKVMDLGGKVISLSDSEGTLYAEAGLTDAQWDALMELKNVKRGRISELAGQFGLEFRKGQTPWSLPCDIALPCATQNELGAEDARTLLRNGCICVAEGANMPTTLEAVDIFLDAGILYAPGKASNAGGVAVSGLEMSQNAMRLLWTAGEVDSKLHNIMQSIHHACVHYGEEADGRINYVKGANIAGFVKVADAMLAQGVV
modifications: Pseudomonas putida glutamate dehydrogenase mutant
As for B4, the “Enzyme activity (per volume fermentation broth)” value in series [1] (100 mM substrate, 10 mM coenzyme, 500 mM NH4+, pH 7.5, 35° C., 10 min, crude enzyme) is 14.85 U/mL. In series [1] (versus wild type PpGluDH), the “Enzyme activity (per volume fermentation broth), times higher than that of wild type” value is given as 135 times. Further, in series [3] (purified protein), the “Specific activity of pure enzyme” value was determined as 38.13 U/mg. For the same molecule, the “Specific activity, times higher than that of wild type” value in series [3] (versus wild type PpGluDH) was found to be 123 times. Also, in series [2] (setting [7]), the “concentration” value was 83.7 g/L, the “residual PPO” value came out at 0.9 mM and the substrate conversion stood at 99.8%.

B5: PeGluDH-A164G: PeGluDH mutant A164G, SEQ ID NO. 5 (protein)
chain: MIESVDHFLARLQQRDPAQPEFHQAVEEVLRSLWPFLEQNPHYLEAGILERMVEPERAVLFRVSWVDDQGKVQVNRGYRIQMSSAIGPYKGGLRFHPSVNLGVLKFLAFEQVFKNSLTSLPMGGGKGGSDFDPKGKSDAEVMRFCQAFMSELYRHIGADLDVPGGDIGVGAREIGFLFGQYKRLANQFTSVLTGKGMTYGGSLIRPEATGYGCVYFAEEMLKRQEQRIDGRRVAISGSGNVAQYAARKVMDLGGKVISLSDSEGTLFCEAGLTDEQWDALMELKNVKRGRISELAGRFGLEFRKGQTPWSLACDIALPCATQNELNADDARTLLRNGCICVAEGANMPTTLDAVDIFIEAGILYAPGKASNAGGVAVSGLEMSQNAMRLLWTAGEVDSKLHHIMQSIHHVCVHYGEEADGRINYVKGANIAGFVKVADAMLAQGVV
modifications: Pseudomonas entomophila glutamate dehydrogenase mutant
B5: the Fold change in series [1] (enzyme activity of mutant versus wild type) is 110. In series [1] (crude enzyme), the “Enzyme activity of mutants (U/mL)” value was 11.29 U/mL.
